From PMC4396682

Columns and labels:
[1] = target: SpoVM (synthesized 26-amino-acid peptide), adsorbed on spherical supported lipid bilayers (Bacillus subtilis); test: fluorescence microscopy of retention on bead-supported lipid bilayers after competition; 0.006 uM SpoIVA^AF488 adsorbed on SpoVM-SSLBs with 4 mM ATP in buffer A with 10 mM MgCl2; then 5 uM (800-fold excess) unlabelled SpoIVA; followed over time to 72 h
[2] = target: SpoVM (synthesized 26-amino-acid peptide), adsorbed on spherical supported lipid bilayers (Bacillus subtilis); test: fluorescence microscopy of retention on bead-supported lipid bilayers after competition; 0.006 uM SpoIVA^AF488 adsorbed on SpoVM-SSLBs without ATP in buffer A with 10 mM MgCl2; then 5 uM (800-fold excess) unlabelled SpoIVA; followed over time to 72 h

Sequence of SpoVM (synthesized 26-amino-acid peptide), adsorbed on spherical supported lipid bilayers (Bacillus subtilis) (P37817 whole entry): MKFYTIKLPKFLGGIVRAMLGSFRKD

percent of the initial SpoIVA^AF488 still adsorbed after 72 h of competition with unlabelled SpoIVA, with ATP [1]: 81%
percent of the initial SpoIVA^AF488 still adsorbed after 4 h of competition with unlabelled SpoIVA, without ATP [2]: 72%
percent of the initial SpoIVA^AF488 still adsorbed after 72 h of competition with unlabelled SpoIVA, without ATP [2]: 26%
Substance: SpoIVA^AF488 (His6-tagged cysteine-less SpoIVA variant C98S with a single engineered cysteine at the N terminus, labelled with AlexaFluor 488) (from UniProt P35149 1-492) (natural protein)
